Results taken from the DeepSol protein solubility set.

assay: soluble on expression in E. coli; label from the status in PepcDB or PDB records

| Sequence | soluble on expression in E. coli |
| --- | --- |
| MQRIVIVGGGVGGTMLANLLVVRLYPEILGGEVQVLLISDSPDHYYKPAFMYVAFEQFFLEDLKRPQRSLLRPEVMFQLDRVDRFDFPRQELQTRSGRRHGYDYLVIATGCVPAPERIEGLKEAGDHFYQYQPARRLAERLASLESGRVFITVSFPRTPNVPHQCGIAPVETTLMLDDYLRRRGVRERVEIVYTYPTTAQLLRNCLFLQRPTCEILPSLFEQRGIRFQRGFTLARVDPERRIAYSEEGDEQPFDLLMATPPIHAVDAVRECGLPQAAADEGWLPTNHETLQVYGVDRVYTLGDTVDLPVSKAGGACHNQAPVVASNIAAEIRLGKPCAIYDGRVQAVAQMGLNAGMPLWYDYRHDVKPTPPTKLGGLLRQGFNRGLYWAVARGMLLEHHHHHH | soluble |
| MQSFNSGSTKIHNAFPEESTRPQKAEGNTAMNILVLGSDSRGSSDADVEANTATDQRADTLMLVHVPADRKKTYAISLMRDLWIDIPGVGESKINAALAYGGVPLMVQTVESLLQQRIDHVAMIDFQGFKGLTDALGGVEVDVRIPFAPSSGPKAGQVYDAGKQTLNGDEALAFVRERKAFSDGDYQRVRNQQAYLKAIIGKVIARETLTNPVTISNMVSAVSPFVSVDKDFDAAAIGSLALSMKDVRAQDTVMFTLPTLGTGTSPDGQSIVLADTTAIADVTAALAKDQVDAYITAHALDKGFLEHHHHHH | soluble |
| MQSKTAKLPDNDRNRPLIQTFNDAQQKVWFDDALLHEDPSQCCNPEFWQQNGKVLGSATGRGTTWFVQLQQTQGALRHYRRGGLFGKLVADSYWFTGWEKTRSYQEFMLLNHLRDAGVNVPRPIAARVQKHGLLYKADLLSEKVPNARDLVSILQESPISDELYRKIGREIRKMHDAQVNHTDLNIHNILIDDQEKVWIIDFDKCYVQIGDSWKQGNLKRLKRSFEKEVCKRGINWSLEAFAIISSYKHEE | not soluble |
| MQSWKERRDFNIVKQDLDFSCGAASVVTLLNNFYGQKLTEEDVLKKLDKEQMPASFEDMRRIMPDLGFEAKGYALSFEQLAQLQIPVIVYLKYRKDDHFSVLRGIDGNTVLLADPSLGHVSMSRAQFLDAWQTREGNLAGKILAVVPKGRDAGGDKAFFTRSPKRQTEFAVGQVKWWRAY | not soluble |
| MQTIKNSLGQSHDYIKMFVKEGDTVVDATCGNGNDTAFLASLVGENGRVFGFDIQDKAIANTTKKLTDLNLIDRVTLIKDGHQNMDKYIDCPVKAVMFNLGYLPSGDHSISTRPETTIQALSKAMELLVTGGIITVVIYYGGDTGFEEKEKVLEFLKGVDQKKFIVQRTDFINQANCPPILVCIEKISLEHHHHHH | not soluble |
| MQTLGFRRPNQVREAVYRHLKDLLLSGRFSPGERLSEPLLAQELGVSRTPVREALMRLAEEGLVELVPGKGARVRVFAPEEVEEVYGVRALLEGEAAREAALRATPWELAELERLLQAIDEAPREDYPEQMRRDLEFHRALVRLSGNRTLYRLYEDLLATLALARSALPTLSQDEATRREHRAILEALLRRDPEEARRAVEAHVFRFRDLVVGRLREEGG | soluble |
| MQTQEVVIKPTLKVLLKSDSQNLEEVVVTAMGIKRSEKSLGYAVSSVKGDEITKARESNVLNSLSGKIAGLQIAQSSGTVGGSSSIQIRGASSIGTVSSPLFIIDGLPIDNGSYNPDRTNGIVDVGNRAGDINSDDIESINVLKGAAATALYGARAKDGAIVITTKKGKKNSPVFVTVNSSTRFENVLKLPDFQNEYAQGSYGVYNVKMLNGWGPKISSVQDQQFTDYKGDKVTLKANPDNVKDFYETGMSYINNVSVAGGGEKADFRLSFTSTNQTGVVPGSDYNKYAFSVNAGMNFTSNFTGRISAQYIRSDSEGRPAQGANDSNLLIPLINGLPRTIDIHDIKQNWIDENGKQVTLDPEGKSNNPYWIINKNKFTNNLDRMIGNITLTYKPIEGLTITNNAGTDFYTEGRRKLYAKGTVGALNGKFQTWNLYKRIINNDLMVSYEKTFANDYHFKAMVGHNLYQEEWKNENVQAQNLVVDGLYTYTNAKSTTPVNYYEKKRLVGLYGDISLGYKDMLFINVTGRNDWSSTLPINNRSYFYPSISGSFIFTELMENKDILNYGKIRLSYANVGSDEDPYNLAFKYTPASTYFLQYLGNVNTFPHMGLVGFTGPRVLPNENLKPQNQSSFEVGADLRFFGGKIRLDMTYYSNITKNQIVSIDVPLSTGYFANNINAGKIANKGVEVTLGLTPVETRNFKWDLDATFASNKQTVEELAEGLDEYTLTSGLSGLQIKAAKGDSFGLYGTAWKRDDQGNYVINSKTGLRETVNNVRLGDVYPDFTMGINNTLTYKGLTFSFLIDIRHGGSLYSETVANLRSSGLAAETVAHREDASFIEPGVILQDDGTYRPNDVPVKSMQDYWQHVANSSNNEGNIYNASFVKLREVQLSYSFPRKWFKSFFVKSLDLGFEARNLWIIKDHVPHIDPEANFFGPSQIGGGVEFNSIPSTRSFGFNLRLTL | not soluble |
| MQVFDLSVDGATTIDIGASTGGFTDVMLQNSAKLVFAVDVGTNQLAWKLRQDPRVVSMEQFNFRYAEKTDFEQEPSFASIDVSFISLSLILPALHRVLADQGQVVALVKPQFEAGREQIGKNGIIRDAKVHQNVLESVTAMAVEVGFSVLGLDFSPIQGGHGNIEFLAYLKKEKSASNQILAEIKEAVERAHSQFKNE | not soluble |
| MQVHSGETEILRKAVEDYFCFCYGKALGTTVMVPVPYEKMLRDQSAVVVQGLPEGVAFQHPENYDLATLKWILENKAGISFIINRPFLGPESQLGGPGMVTDAERSIVSPSESCGPINVKTEPMEDSGISLKAEAVSVKKESEDPNYYQYNMQGSHPSSTSNEVIEMELPMEDSTPLVPSEEPNEDPEAEVKIEGNTNSSSVTNSAAGVEDLNIVQVTVPDNEKERLSSIEKIKQLREQVNDLFSRKFGEAIGVDFPVKVPYRKITFNPGCVVIDGMPPGVVFKALGYLEISSMRRILEAAEFIKFTVIRPLPGLELSNVGKRKIDQEGRVFQEKWERAYFFVEVQNIPTCLICKQSMSVSKEYNLRRHYQTNHSKHYDQYTERMRDEKLHELKKGLRKYLLGSSDTECPEQKQVFANPSPTQKSPVQPVEDLAGNLWEKLREKIRSFVAYSIAIDEITDINNTTQLAIFIRGVDENFDVSEELLDTVPMTGTKSGNEIFLRVEKSLKKFCINWSRLVSVASTGTPAMVDANNGLVTKLKSRVATFCKGAELKSICCIIHPESLCAQKLKMDHVMDVVVKSVNWICSRGLNHSEFTTLLYELDSQYGSLLYYTEIKWLSRGLVLKRFFESLEEIDSFMSSRGKPLPQLSSIDWIRDLAFLVDMTMHLNALNISLQGHSQIVTQMYDLIRAFLAKLCLWETHLTRNNLAHFPTLKLVSRNESDGLNYIPKIAELKTEFQKRLSDFKLYESELTLFSSPFSTKIDSVHEELQMEVIDLQCNTVLKTKYDKVGIPEFYKYLWGSYPKYKHHCAKILSMFGSTYICEQLFSIMKLSKTKYCSQLKDSQWDSVLHIAT | soluble |
| MQVLDKTQVEAVSKALGEPAWLLEKRLKALEAFARLPYPSKKDENWRYTDLSEAPLELPVEAPKGLRLSRDDLPEPVKRRLERTDVSGFLVFVGPDLVYAEVPEALKEKGLVFTSLAEALKTHPDKVEAALFQAVYTEDKFAAQNSAFFTHGAFLYVPAGLEVEKPLGVFKVLLEGEKASAGRSLLFLEDNAKAAYIEEYLSLDLPPTLHLSATEMVLRPGARLRHAHVQTFGEGVWHFHRQRALLERDSGLNDLVVNLGGAYARSEVASELVGPGAESEMLGLYFGHGRQQFDHYTLQHHVEHHTRSDLLYKGAVKDEARAVFSGLIRLEKGAQKTDAYQANRNLLLSPTARVDSIPQLEIGANDVRCTHGSTTAPVDEMQLFYLQSRGLPRGLAQELLVKAHLADVLSRIPLKALRAHIEAVIEEKVRI | soluble |
| MQVMFYSPSGQKLFGENGSPAFLLKGGITDLKGAIEARTTVIPEVPGQVFDGVTIKPFTFGVTMVVYPTKEMPMEKAMRKTRQIFSAFDYSTCRIDGTGIPVGLKVRLDSIISAPSQDTAKEIAEEITITLAADEGIFWADRKEASGKIDIVNYGDCDLWPEYRWQKTTTITLPSGAKINLPETPTPRVLRTTRHQVSITDLDGKPDRELLKKLGTVWPEGVPRKETKTYEITQNGYIMWRIGYLDPWGL | not soluble |
| MQYFSPEQQYNAWIVSDLVKQIFHKRAGCSPGIHELAVFAEEHFHIDIDFVFSIIMNIGDIEFALTDEIEKKLSGYLSTLLPYVTADMFETSKANAHAFLSRRHGNAAYHLFVSDDAFMRKQLEHHHHHH | soluble |
| MQYHEIGKTGMKVSSLSFGASSLGGVFHDLKEKEGIQAVFTAIEAGMNFIDVSPYYGHYKAETVLGKALKDIPRDRYYLSTKVGRYGKDGVNTWDYSAKRATESVYESMERLNIDFIDLINVHDIEFADLNQVVNETLPALVELREKGVVGHVGITDLQLENLKWVIDRSPSGTIESVLSFCHYCLCDDKLADFLDYFESKEIGVINASPLSMGLLSERGVPVWHPAPKPLVDACRKAMEHCKAKNYPIEKLAMQFSVSNPKIATTLFSTTNPENVKKNIGFIEEPVDWELVREVREIIGEQQRVSWANS | not soluble |
| MRAVWVLGIDTSCDDTGVGLVRDGKVVVNLVASQVRLHEAFGGVVPELASREHLKALPLLVERALAEAGLRPKDLDLVAATRGPGLIGALLVGYTFAKGMAFALDRPFYAVHHLEGHIAAAWPEGLPPPFLALVASGGHTHLYEVLDLGRYRLLGATRDDAAGEAFDKVARLLGLGFPGGPEVERLAEEAEEAIPFPVPLRGQEGYDFSFSGLKTKALHLVEKGLPKAALAKGFQEAAIAHLAEVVLKAAKDTGHRVLLVAGGVAANRALQERFKEAGLEVHFPPRGLSQDNGAMIALAAWRRHQRGFPPSPLSLGATAYWPLEEA | soluble |
| MRCIQLYVFYLISQLFTTGSAQKTFHYGVTGGEQFGRHEPSTRLSRFQSTPVSLNPLEDTLRVQQILKKLEDPGGLEIRRRSTSRRLHGVLTEPFGTPLVISGNSSEKKKKKPLKIKKRNGRRNPKSPEVNEYELQLAKQIEEDQLKFVEDEKNPMKYVVENGLLFRQSRYSPLARVEIPPVSGMSEISGISQRTSHSVGQTMQNPPRKRRRKQSYKLKNSKSSSESMFRTNVFRGNINRQIPAIPLPSPFSVAYGKPSFAIAREEDGKCYTNRFGYRCCDEALEALILKSYEKLRRKSNDLEDNLSKIASTLRRDSRQVFAKNLEAIVSTSNFGTSIPSDFSCKVELGPNRFVAQVFVPELGLDAKTTTRRHRIPYHELSREDLSDAADLVVSRNGIIVSKLL | not soluble |
| MRCMTLPAYDIAILGAGPVGRVLALLLARLTPQPQRIALLQGGAGLPPTPAGTLGPAADPRVLALNHGSRVLLESLRAWPAHAAEIRHIHVSQRGRLGRTVIDREDFDVPQLGNVVAYAALHAQLEQAVQDCGVTVLSGPPARVDGQDGEGLTVRQGDAALHCRLAVQCDGAGGSDVRRDYAQHAVLTSAHATLPRSGWAWERFTNEGPLAMLPHPQTPEAYSVVWCCAPPRARRLAGLDDEAFSRELTEAFGTRLGRLRSAAPRHVFPLELKARHAQAHGRLATIGNAAQTLHPVAGQGLNLGLRDAAQLAHALPDWLAAPQADPSPLLATFARARLADRWVTAGLTDLMPRIFATGLAPVEHACGLALLGLDIAAPLRAPLARHLLQGLRVLEHHHHHH | soluble |
| MRDSPTHKEQRAQNTMSDQMPFPFNNFTYFFTLFSKFFSSFHHCTCSLSVSRQYLALDGIYHPLRAAFPNNSTLRRHFTKNRTPRHTGFSPSMTSCSKEHRQGTAPKLPSPNYNSGTEGTRFQI | not soluble |
| MRDVLFLPFADGMELAVAADGSAAVGDKPGDVVSAPADVVAYFAARVALMELVSVGAEAKAVVLQNFIADDRWEALCRGVRRTCRELGIDLPITGSTESNFPTVQSALGVTAIGTVANERKRIGITPEEAKFAVIGRPLVGSAVLSHPEWVAPLPLFAALLRTPYIYELIPIGSKGIYYEWTQLLAANGRQGRACACPLPLFSSGGPATSVLVSYDPDGEREIKKQAGSLFFPLHVEW | not soluble |
